The values that follow come from article PMC9060444 (2022).

Assay [1] addresses GST-ElpQ (B. burgdorferi strain B31). Description: SPR; Biacore T200; GST-ElpB or GST-ElpQ immobilised on the sensor chip; C1 complex (twofold series 0.6 to 150 nM), C1r or C1s enzyme or proenzyme injected as analyte; steady-state affinity fits; triplicate. For orientation: Surface plasmon resonance follows binding to a sensor surface in real time, without labels.
Assay [2] deals with GST-ElpB (B. burgdorferi strain B31). The description is as above.
Assay [3] concerns the target human complement C1 complex (human) (UniProt P02745).
Assay [4] shares this target. Kind of assay: ELISA; ELISA-type binding assay: GST-fusion proteins on wells coated with human C1 complex, C1q, C1r enzyme or C1s enzyme; apparent KD by nonlinear regression (GraphPad Prism).
The target of assay [5] is human C1s enzyme (activated C1s) (human). The description is as above.
In assay [6] the target is human C1r enzyme (activated C1r) (human). The assay is described as above.
The target in assay [7] is human C1s enzyme (activated C1s) (human).
For assay [8], the target named is T1, human C1s enzyme (activated C1s) (human).
T1 chain 1: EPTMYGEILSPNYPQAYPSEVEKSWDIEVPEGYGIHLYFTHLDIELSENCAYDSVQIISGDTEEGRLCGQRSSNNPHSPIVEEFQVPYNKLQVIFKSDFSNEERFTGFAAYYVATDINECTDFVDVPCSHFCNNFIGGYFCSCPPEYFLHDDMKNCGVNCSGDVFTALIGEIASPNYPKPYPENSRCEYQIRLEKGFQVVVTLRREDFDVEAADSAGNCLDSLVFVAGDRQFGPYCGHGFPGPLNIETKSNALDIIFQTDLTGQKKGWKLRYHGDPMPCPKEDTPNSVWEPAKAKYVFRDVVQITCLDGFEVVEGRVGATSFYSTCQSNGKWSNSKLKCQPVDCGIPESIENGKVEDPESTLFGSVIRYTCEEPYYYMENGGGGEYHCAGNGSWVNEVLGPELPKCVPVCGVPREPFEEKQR
T1 chain 2: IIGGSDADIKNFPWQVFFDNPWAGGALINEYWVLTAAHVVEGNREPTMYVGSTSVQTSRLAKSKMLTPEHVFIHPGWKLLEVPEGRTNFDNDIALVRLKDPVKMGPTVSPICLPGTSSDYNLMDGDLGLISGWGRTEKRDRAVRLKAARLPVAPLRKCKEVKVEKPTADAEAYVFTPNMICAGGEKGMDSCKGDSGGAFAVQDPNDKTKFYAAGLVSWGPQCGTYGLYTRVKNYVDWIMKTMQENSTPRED
Kind of assay: SPR.

On to human C1s enzyme (activated C1s), for which the figures for the Kd in assay [1] and in assay [2] were 4.5 nM and 3.9 nM, respectively.
On to “GST-BBK32 (from UniProt O50835 1-354) (natural protein)”, for which, in assay [3], the IC50 of inhibition of C3b deposition from normal human serum on IgM-coated wells (ELISA) came to 29 nM, the IC50 of inhibition of C5b-9 deposition from normal human serum on IgM-coated wells (ELISA) turned out to be 100 nM and the IC50 of inhibition of classical-pathway lysis of antibody-sensitised sheep erythrocytes by normal human serum was determined as 79 nM.
GST-ElpB (natural protein): in assay [3], the IC50 of inhibition of C3b deposition from normal human serum on IgM-coated wells (ELISA) was determined as 570 nM, the IC50 of inhibition of C4b deposition from normal human serum on IgM-coated wells (ELISA) turned out to be 330 nM, the IC50 of inhibition of C5b-9 deposition from normal human serum on IgM-coated wells (ELISA) came out at 300 nM and the IC50 of inhibition of classical-pathway lysis of antibody-sensitised sheep erythrocytes by normal human serum was found to be 1600 nM. In assay [4], the Kd came to 3.4 nM. In addition, in assay [5], the Kd came to 6.7 nM. For the same molecule, in assay [6], the Kd amounted to 41 nM.
BBK32-C (domain or fragment) had an IC50 of inhibition of C4b deposition from normal human serum on IgM-coated wells (ELISA); by the table's footnote based on the non-GST-tagged BBK32-C construct in assay [3] of 18 nM.
“human complement C1 complex (from UniProt P02745 23-245; P02746 28-253; P02747 29-245)” returned a Kd in assay [2] of 5.6 nM.
As for tagless ElpQ (natural protein), in assay [7], the IC50 of inhibition of the cleavage of C2 (685 nM) by C1s enzyme (6.25 nM), SDS/PAGE densitometry of C2b, ElpQ 16 to 0.13 uM, 1 h at 37 C was 1400 nM and the IC50 of inhibition of the cleavage of C4 (616 nM) by C1s enzyme (6.25 nM), SDS/PAGE densitometry of C4 alpha', ElpQ 25 to 0.20 uM, 1 h at 37 C came out at 11000 nM.
Molecule tagless ElpB (natural protein) registered an IC50 of inhibition of the cleavage of C2 by C1s enzyme (SDS/PAGE) in assay [7] of 870 nM.
As to human C1r enzyme (activated C1r), the Kd in assay [1] is 97 nM; in assay [2], 100 nM.
Take GST-ElpQ (natural protein): in assay [3], the IC50 of inhibition of C3b deposition from normal human serum on IgM-coated wells (ELISA) came to 450 nM, the IC50 of inhibition of C4b deposition from normal human serum on IgM-coated wells (ELISA) was found to be 260 nM, the IC50 of inhibition of C5b-9 deposition from normal human serum on IgM-coated wells (ELISA) stood at 1000 nM and the IC50 of inhibition of classical-pathway lysis of antibody-sensitised sheep erythrocytes by normal human serum was 1500 nM. Moreover, the Kd in assay [4] came out at 3.8 nM. Moreover, the Kd in assay [5] worked out at 4.7 nM. The Kd in assay [6] is 11 nM.
Turning to human C1s proenzyme, the Kd in assay [1] came to 170 nM; in assay [2], 270 nM.

B1: tagless ElpQ (natural protein)
chain: CKNFATGKDIKQNSEGKIKGFVNKILDPVKDKIASSGTKVDEVAKKLQEEEKEELMQGDDPNGSGINPPPVLPENIHNNALVLKAIEQSDGQQEKKVEEAEAKVEENKEKQENTEENIKEKEIIDEQNKQELAKAKEEEQQKEQKRHQEEQQRKAKAEKEKREREEAEQQKRQQEEEEKRQVDNQIKTLIAKIDEINENIDVIKWQTTVGPQGVIDRITGPVYDDFTNGNNSIRETWEGLEEESEDEGLGKLLKELSDARDALRTKLNEGNKPYTGYEEPKLKESVNVSEIKEDLEKLKSKLEEVKKYLKDSSKFEEIKGYISDSQ
As to B1, the Kd in assay [8] amounted to 15 nM.

B2: GST-ElpQ (natural protein)
chain: B1 chain
Take B2: the Kd in assay [8] came out at 16.5 nM.
